Drawing on the Human Domainome abundance scans (Beltran et al. 2025), this text covers abundance fitness for 47 variants.

± gives the uncertainty stated by the source.

B1: POU domain, class 3, transcription factor 3, residues 320 to 388; numbered along this chain, P20264 (parent)
chain: DDLEQFAKQFKQRRIKLGFTQADVGLALGTLYGNVFSQTTICRFEALQLSFKNMCKLKPLLNKWLEEAD
B2: Histone-lysine N-methyltransferase 2A, residues 1148 to 1194; numbered along this chain, Q03164 (parent)
chain: KGRRSRRCGQCPGCQVPEDCGVCTNCLDKPKFGGRNIKKQCCKMRKC

Variants of B1 are the subject of the first data set. Description: abundance fitness (aPCA) (normalised: wild type 0, dead -1); higher = more abundant; growth selection in yeast, the domain comes from the species named. The note with it: Homo sapiens.
DDLEQFAKQFKQRRIKLGFTQADVGLALGTLYGNVFSQTTICRFEALQLSFKNMCKLKPLLNKWLEEAT: the abundance fitness is -0.314 ± 0.25. Take DDLEQFAKQFKQRRIKLGFTQADVGLALGTLYGNVFSQTTICRFEALQLSFKNMCKLKPLLNKWLEEAS: the abundance fitness was -0.573 ± 0.32. Same read-out and setting: then DDLEQFAKQFKQRRIKLGFTQADVGLALGTLYGNVFSQTTICRFEALQLSFKNMCKLKPLLNKWLEEAP, with -0.128 ± 0.047. In the case of DDLEQFAKQFKQRRIKLGFTQADVGLALGTLYGNVFSQTTICRFEALQLSFKNMCKLKPLLNKWLEEAE, the abundance fitness was -0.183 ± 0.25. Still for that read-out and setting: the result for DDLEQFAKQFKQRRIKLGFTQADVGLALGTLYGNVFSQTTICRFEALQLSFKNMCKLKPLLNKWLEEAL reads -0.436 ± 0.16. DDLEQFAKQFKQRRIKLGFTQADVGLALGTLYGNVFSQTTICRFEALQLSFKNMCKLKPLLNKWLEESD: the abundance fitness is -0.082 ± 0.14. With DDLEQFAKQFKQRRIKLGFTQADVGLALGTLYGNVFSQTTICRFEALQLSFKNMCKLKPLLNKWLEELD, the abundance fitness was -0.705 ± 0.27. As to DDLEQFAKQFKQRRIKLGFTQADVGLALGTLYGNVFSQTTICRFEALQLSFKNMCKLKPLLNKWLEEQD, the abundance fitness was -0.587 ± 0.32. As for DDLEQFAKQFKQRRIKLGFTQADVGLALGTLYGNVFSQTTICRFEALQLSFKNMCKLKPLLNKWLEEYD, the abundance fitness was -0.176 ± 0.17. Take DDLEQFAKQFKQRRIKLGFTQADVGLALGTLYGNVFSQTTICRFEALQLSFKNMCKLKPLLNKWLEEGD: the abundance fitness was -0.62 ± 0.25. Same read-out and setting: the result for DDLEQFAKQFKQRRIKLGFTQADVGLALGTLYGNVFSQTTICRFEALQLSFKNMCKLKPLLNKWLEEHD reads -0.392 ± 0.45; that for DDLEQFAKQFKQRRIKLGFTQADVGLALGTLYGNVFSQTTICRFEALQLSFKNMCKLKPLLNKWLEEMD, 0.303 ± 0.23. Same read-out and setting: the result for DDLEQFAKQFKQRRIKLGFTQADVGLALGTLYGNVFSQTTICRFEALQLSFKNMCKLKPLLNKWLEERD reads -0.248 ± 0.15; that for DDLEQFAKQFKQRRIKLGFTQADVGLALGTLYGNVFSQTTICRFEALQLSFKNMCKLKPLLNKWLEECD, -0.485 ± 0.36; that for DDLEQFAKQFKQRRIKLGFTQADVGLALGTLYGNVFSQTTICRFEALQLSFKNMCKLKPLLNKWLEEND, -0.163 ± 0.45.

DDLEQFAKQFKQRRIKLGFTQADVGLALGTLYGNVFSQTTICRFEALQLSFKNMCKLKPLLNKWLEEED: the abundance fitness was -0.6 ± 0.23.

As to DDLEQFAKQFKQRRIKLGFTQADVGLALGTLYGNVFSQTTICRFEALQLSFKNMCKLKPLLNKWLERAD, the abundance fitness is -0.015 ± 0.12.

Take DDLEQFAKQFKQRRIKLGFTQADVGLALGTLYGNVFSQTTICRFEALQLSFKNMCKLKPLLNKWLESAD: the abundance fitness is 0.196 ± 0.23. DDLEQFAKQFKQRRIKLGFTQADVGLALGTLYGNVFSQTTICRFEALQLSFKNMCKLKPLLNKWLETAD: the abundance fitness was -0.134 ± 0.26. DDLEQFAKQFKQRRIKLGFTQADVGLALGTLYGNVFSQTTICRFEALQLSFKNMCKLKPLLNKWLEVAD: the abundance fitness is -0.321 ± 0.14.

Variants of B2 are the subject of another data set. Described as above. The note with it: Homo sapiens.
On to KLRRSRRCGQCPGCQVPEDCGVCTNCLDKPKFGGRNIKKQCCKMRKC, for which the abundance fitness was -0.303 ± 0.11. For KRRRSRRCGQCPGCQVPEDCGVCTNCLDKPKFGGRNIKKQCCKMRKC, the abundance fitness was -0.413 ± 0.12. With KWRRSRRCGQCPGCQVPEDCGVCTNCLDKPKFGGRNIKKQCCKMRKC, the abundance fitness was -0.79 ± 0.16. Regarding KERRSRRCGQCPGCQVPEDCGVCTNCLDKPKFGGRNIKKQCCKMRKC, the abundance fitness came to 0.013 ± 0.12.

As to KSRRSRRCGQCPGCQVPEDCGVCTNCLDKPKFGGRNIKKQCCKMRKC, the abundance fitness was -0.213 ± 0.086.

As to KQRRSRRCGQCPGCQVPEDCGVCTNCLDKPKFGGRNIKKQCCKMRKC, the abundance fitness was -0.007 ± 0.17. Consider KKRRSRRCGQCPGCQVPEDCGVCTNCLDKPKFGGRNIKKQCCKMRKC, for which the abundance fitness was -0.569 ± 0.23. On the same count and under the same terms, the result for KVRRSRRCGQCPGCQVPEDCGVCTNCLDKPKFGGRNIKKQCCKMRKC reads -0.275 ± 0.098; that for KFRRSRRCGQCPGCQVPEDCGVCTNCLDKPKFGGRNIKKQCCKMRKC, -0.701 ± 0.38; that for KDRRSRRCGQCPGCQVPEDCGVCTNCLDKPKFGGRNIKKQCCKMRKC, 0.186 ± 0.088. As for KARRSRRCGQCPGCQVPEDCGVCTNCLDKPKFGGRNIKKQCCKMRKC, the abundance fitness is -0.403 ± 0.12. As for KGCRSRRCGQCPGCQVPEDCGVCTNCLDKPKFGGRNIKKQCCKMRKC, the abundance fitness is 0.012 ± 0.11. As to KGGRSRRCGQCPGCQVPEDCGVCTNCLDKPKFGGRNIKKQCCKMRKC, the abundance fitness was -0.091 ± 0.08. For the variant KGERSRRCGQCPGCQVPEDCGVCTNCLDKPKFGGRNIKKQCCKMRKC, the abundance fitness was -0.038 ± 0.13.

Consider KGARSRRCGQCPGCQVPEDCGVCTNCLDKPKFGGRNIKKQCCKMRKC, for which the abundance fitness is -0.123 ± 0.089. In the case of KGFRSRRCGQCPGCQVPEDCGVCTNCLDKPKFGGRNIKKQCCKMRKC, the abundance fitness is 0.097 ± 0.17.

As for KGDRSRRCGQCPGCQVPEDCGVCTNCLDKPKFGGRNIKKQCCKMRKC, the abundance fitness was -0.185 ± 0.18.

Regarding YGRRSRRCGQCPGCQVPEDCGVCTNCLDKPKFGGRNIKKQCCKMRKC, the abundance fitness is -0.299 ± 0.33. Turning to TGRRSRRCGQCPGCQVPEDCGVCTNCLDKPKFGGRNIKKQCCKMRKC, the abundance fitness was -0.659 ± 0.21. In the case of VGRRSRRCGQCPGCQVPEDCGVCTNCLDKPKFGGRNIKKQCCKMRKC, the abundance fitness was -0.43 ± 0.31.

In the case of MGRRSRRCGQCPGCQVPEDCGVCTNCLDKPKFGGRNIKKQCCKMRKC, the abundance fitness is -0.337 ± 0.17. With PGRRSRRCGQCPGCQVPEDCGVCTNCLDKPKFGGRNIKKQCCKMRKC, the abundance fitness is -0.662 ± 0.44.

For SGRRSRRCGQCPGCQVPEDCGVCTNCLDKPKFGGRNIKKQCCKMRKC, the abundance fitness is -0.232 ± 0.18. As to GGRRSRRCGQCPGCQVPEDCGVCTNCLDKPKFGGRNIKKQCCKMRKC, the abundance fitness is -0.676 ± 0.3. On the same count and under the same terms, the result for RGRRSRRCGQCPGCQVPEDCGVCTNCLDKPKFGGRNIKKQCCKMRKC reads -0.285 ± 0.21; that for DGRRSRRCGQCPGCQVPEDCGVCTNCLDKPKFGGRNIKKQCCKMRKC, -0.341 ± 0.28. In the case of EGRRSRRCGQCPGCQVPEDCGVCTNCLDKPKFGGRNIKKQCCKMRKC, the abundance fitness amounted to 0.47 ± 0.24.
